Patent US20200010536A1

Each binder was assayed against LukAB heterodimer (Staphylococcus aureus) (assay: ELISA, immobilized LukAB, anti-human IgG-peroxidase detection).

Binder	EC50
SA-13 (antibody, V domains shown) VH: QVQLVESGGGLVRPGGSLRLSCAASGFTFSEYYMSWIRQAPGKGLEWLSYISSSGTTIGHADSLKGRFTISRDNARNSLFLQMNSLRAEDTAVYYCARDGVGGPRARYDAFDIWGQGTLVTVSS VL: QSVLTQPPSVSGAPGQRVTISCTGTYSNIGAGYDVHWYQQLPGRAPKLLIYGNRNRPSGVPDRFSGSKSGTSASLAITGLQAEDEADYYCQSHDSSLSGSVFGGGTKVTVL	0.8 µg/mL
SA-17 (antibody, V domains shown) VH: QVQLVQSGGAVVQPGGSLRLSCVASGFTFDDYAMHWVRQAPGKGLEWVSLITLDGGRTYYADSVKGRFTISRDNSKNSLYLQMNRLRADDTGFYYCARDIKIGEAVMITVPGQHWGQGTLVTVSS VL: QSVVTQDPGVSVALGQTVFITCQGDTLRSNYANWFQQKPGQAPVLVMYGKNNRPSGIPDRFSGSSSGNTASLTITGAQAEDEADYYCNSRDSSGNHVVFGGGTRVTVL	0.3 µg/mL
SA-15 (antibody, V domains shown) VH: QVQLVQSGGGVVQPGRSLRLSCAASGFSFSTYDMNWVRQAPGKGLEWLSIISYDETNKYYADSVKGRFTISRDNSKNTLFLQMNSLKPEDSAVYHCVKVGWTLVGDGVDMWGQGTLVTVSS VL: QPVLTQSPSSLSASVGDRVTISCRASQGISHYLAWYQQQPGKVPKLLIYAASTLQSGVPSRFSGSGSGTDFTLTISSLQPEDVATYYCQKYNGAPFTFGPGTKVDIK	1.5 µg/mL
